No end group written: not given here.
T1: human ChemerinR (human, UniProt Q99788 3-373)
T1 sequence: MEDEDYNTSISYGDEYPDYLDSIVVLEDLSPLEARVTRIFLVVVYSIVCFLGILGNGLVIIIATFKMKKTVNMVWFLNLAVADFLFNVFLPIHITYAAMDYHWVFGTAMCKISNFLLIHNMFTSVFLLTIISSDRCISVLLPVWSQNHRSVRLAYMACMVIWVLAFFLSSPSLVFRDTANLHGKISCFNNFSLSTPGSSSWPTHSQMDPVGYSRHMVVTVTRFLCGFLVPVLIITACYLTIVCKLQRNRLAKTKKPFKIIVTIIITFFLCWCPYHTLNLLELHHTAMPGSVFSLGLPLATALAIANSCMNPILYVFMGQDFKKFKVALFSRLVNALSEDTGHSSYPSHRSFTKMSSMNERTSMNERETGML


These binders were tested against T1, human ChemerinR (assay: cell-based or functional assay).

Binder | EC50 (nM), Calcium flux-Aequoscreen assay on ChemerinR expressing cells [nM]
FLPGQFAFS | 29.1
YFPGQFAFD-NH2 [YFPGQFAFD-CONH2] | 4.3

Second part, the binder after the results:

EC50 (nM), Calcium flux-Aequoscreen assay on ChemerinR expressing cells [nM] | Binder
43.8 | YVPGQFAFS
66.3 | LFPGQFAFS
25.8 | IFPGQFAFS
